Assay results from patent publication US20210388087A1 (Chugai, published 2021).
Residue numbers refer to the chain shown, from its start.

B1: CE115HA000 W33A (antibody, human IgG1, kappa, L234A L235A, N297A, name in Kabat numbering)
heavy: QVQLVESGGGVVQPGRSLRLSCAASGFTFSNAAMHWVRQAPGKGLEWVAQIKAKSNNYATYYAESVKGRFTISRDDSKNSLYLQMNSLKTEDTAVYYCRYVHYGAYYGVDAWGQGTTVTVSSASTKGPSVFPLAPSSKSTSGGTAALGCLVKDYFPEPVTVSWNSGALTSGVHTFPAVLQSSGLYSLSSVVTVPSSSLGTQTYICNVNHKPSNTKVDKKVEPKSCDKTHTCPPCPAPEAAGGPSVFLFPPKPKDTLMISRTPEVTCVVVDVSHEDPEVKFNWYVDGVEVHNAKTKPREEQYASTYRVVSVLTVLHQDWLNGKEYKCKVSNKALPAPIEKTISKAKGQPREPQVYTLPPSRCELTKNQVSLSCAVKGFYPSDIAVEWESNGQPENNYKTTPPVLDSDGSFFLVSKLTVDKSRWQQGNVFSCSVMHEALHNHYTQKSLSLSPDYKDDDDK
chain: EPKSSDKTHTCPPCPAPELLGGPSVFLFPPKPKDTLMISRTPEVTCVVVDVSHEDPEVKFNWYVDGVEVHNAKTKPREEQYNSTYRVVSVLTVLHQDWLNGKEYKCKVSNKALPAPIEKTISKAKGQPREPQVCTLPPSRDELTKNQVSLWCLVKGFYPSDIAVEWESNGQPENNYKTTPPVLDSDGSFFLYSKLTVDKSRWQQGNVFSCSVMHEALHNRYTQKSLSLSP
light: DIVMTQSPLSLPVTPGEPASISCRSSQSLVHSNRNTYLHWYQQKPGQAPRLLIYKVSNRFSGVPDRFSGSGSGTDFTLKISRVEAEDVGVYYCGQGTQVPYTFGQGTKLEIKRTVAAPSVFIFPPSDEQLKSGTASVVCLLNNFYPREAKVQWKVDNALQSGNSQESVTEQDSKDSTYSLSSTLTLSKADYEKHKVYACEVTHQGLSSPVTKSFNRGEC
notes: one-arm antibody
B2: CE115HA000 Y58Q (antibody, human IgG1, kappa, L234A L235A, N297A, name in Kabat numbering)
heavy: B1 heavy with A33W, Y61Q
chain: B1 chain
light: B1 light
notes: one-arm antibody
B3: CE115HA000 Y58A (antibody, human IgG1, kappa, L234A L235A, N297A, name in Kabat numbering)
heavy: B1 heavy with A33W, Y61A
chain: B1 chain
light: B1 light
notes: one-arm antibody
B4: CE115HA000 Y58L (antibody, human IgG1, kappa, L234A L235A, N297A, name in Kabat numbering)
heavy: B1 heavy with A33W, Y61L
chain: B1 chain
light: B1 light
notes: one-arm antibody
B5: CE115HA000 Y59D (antibody, human IgG1, kappa, L234A L235A, N297A, name in Kabat numbering)
heavy: B1 heavy with A33W, Y62D
chain: B1 chain
light: B1 light
notes: one-arm antibody
B6: CE115HA000 Y59A (antibody, human IgG1, kappa, L234A L235A, N297A, name in Kabat numbering)
heavy: B1 heavy with A33W, Y62A
chain: B1 chain
light: B1 light
notes: one-arm antibody
B7: CE115HA000 W33F (antibody, human IgG1, kappa, L234A L235A, N297A, name in Kabat numbering)
heavy: B1 heavy with A33F
chain: B1 chain
light: B1 light
notes: one-arm antibody
B8: CE115HA000 Y58D (antibody, human IgG1, kappa, L234A L235A, N297A, name in Kabat numbering)
heavy: B1 heavy with A33W, Y61D
chain: B1 chain
light: B1 light
notes: one-arm antibody
B9: CE115HA000 Y97S (antibody, human IgG1, kappa, L234A L235A, N297A, name in Kabat numbering)
heavy: B1 heavy with A33W, Y103S
chain: B1 chain
light: B1 light
notes: one-arm antibody
B10: CE115HA000 Y97D (antibody, human IgG1, kappa, L234A L235A, N297A, name in Kabat numbering)
heavy: B1 heavy with A33W, Y103D
chain: B1 chain
light: B1 light
notes: one-arm antibody
B11: CE115HA000 Y100Q (antibody, human IgG1, kappa, L234A L235A, N297A, name in Kabat numbering)
heavy: B1 heavy with A33W, Y106Q
chain: B1 chain
light: B1 light
notes: one-arm antibody
B12: CE115HA000 Y55S (antibody, human IgG1, kappa, L234A L235A, N297A, name in Kabat numbering)
heavy: B1 heavy with A33W, Y58S
chain: B1 chain
light: B1 light
notes: one-arm antibody
B13: CE115HA000 Y58N (antibody, human IgG1, kappa, L234A L235A, N297A, name in Kabat numbering)
heavy: B1 heavy with A33W, Y61N
chain: B1 chain
light: B1 light
notes: one-arm antibody
B14: CE115HA000 Y100G (antibody, human IgG1, kappa, L234A L235A, N297A, name in Kabat numbering)
heavy: B1 heavy with A33W, Y106G
chain: B1 chain
light: B1 light
notes: one-arm antibody
B15: CE115HA000 Y100P (antibody, human IgG1, kappa, L234A L235A, N297A, name in Kabat numbering)
heavy: B1 heavy with A33W, Y106P
chain: B1 chain
light: B1 light
notes: one-arm antibody
B16: CE115HA000 Y97G (antibody, human IgG1, kappa, L234A L235A, N297A, name in Kabat numbering)
heavy: B1 heavy with A33W, Y103G
chain: B1 chain
light: B1 light
notes: one-arm antibody
B17: CE115HA000 Y100L (antibody, human IgG1, kappa, L234A L235A, N297A, name in Kabat numbering)
heavy: B1 heavy with A33W, Y106L
chain: B1 chain
light: B1 light
notes: one-arm antibody
B18: CE115HA000 Y59S (antibody, human IgG1, kappa, L234A L235A, N297A, name in Kabat numbering)
heavy: B1 heavy with A33W, Y62S
chain: B1 chain
light: B1 light
notes: one-arm antibody
B19: CE115HA000 Y100D (antibody, human IgG1, kappa, L234A L235A, N297A, name in Kabat numbering)
heavy: B1 heavy with A33W, Y106D
chain: B1 chain
light: B1 light
notes: one-arm antibody
B20: CE115HA000 Y55G (antibody, human IgG1, kappa, L234A L235A, N297A, name in Kabat numbering)
heavy: B1 heavy with A33W, Y58G
chain: B1 chain
light: B1 light
notes: one-arm antibody
B21: CE115HA000 Y100K (antibody, human IgG1, kappa, L234A L235A, N297A, name in Kabat numbering)
heavy: B1 heavy with A33W, Y106K
chain: B1 chain
light: B1 light
notes: one-arm antibody
B22: CE115HA000 Y58K (antibody, human IgG1, kappa, L234A L235A, N297A, name in Kabat numbering)
heavy: B1 heavy with A33W, Y61K
chain: B1 chain
light: B1 light
notes: one-arm antibody
B23: CE115HA000 Y97P (antibody, human IgG1, kappa, L234A L235A, N297A, name in Kabat numbering)
heavy: B1 heavy with A33W, Y103P
chain: B1 chain
light: B1 light
notes: one-arm antibody
B24: CE115HA000 W33Y (antibody, human IgG1, kappa, L234A L235A, N297A, name in Kabat numbering)
heavy: B1 heavy with A33Y
chain: B1 chain
light: B1 light
notes: one-arm antibody
B25: CE115HA000 W33H (antibody, human IgG1, kappa, L234A L235A, N297A, name in Kabat numbering)
heavy: B1 heavy with A33H
chain: B1 chain
light: B1 light
notes: one-arm antibody
B26: CE115HA000 Y58S (antibody, human IgG1, kappa, L234A L235A, N297A, name in Kabat numbering)
heavy: B1 heavy with A33W, Y61S
chain: B1 chain
light: B1 light
notes: one-arm antibody
B27: CE115HA000 Y59E (antibody, human IgG1, kappa, L234A L235A, N297A, name in Kabat numbering)
heavy: B1 heavy with A33W, Y62E
chain: B1 chain
light: B1 light
notes: one-arm antibody
B28: CE115HA000 Y100A (antibody)
heavy: B1 heavy with A33W, Y106A
Fc: B1 chain
light: B1 light
notes: one-arm antibody
B29: CE115HA000 W33D (antibody, human IgG1, kappa, L234A L235A, N297A, name in Kabat numbering)
heavy: B1 heavy with A33D
chain: B1 chain
light: B1 light
notes: one-arm antibody
B30: CE115HA000 Y97R (antibody, human IgG1, kappa, L234A L235A, N297A, name in Kabat numbering)
heavy: B1 heavy with A33W, Y103R
chain: B1 chain
light: B1 light
notes: one-arm antibody
B31: CE115HA000 Y100S (antibody, human IgG1, kappa, L234A L235A, N297A, name in Kabat numbering)
heavy: B1 heavy with A33W, Y106S
chain: B1 chain
light: B1 light
notes: one-arm antibody
B32: CE115HA000 Y97A (antibody, human IgG1, kappa, L234A L235A, N297A, name in Kabat numbering)
heavy: B1 heavy with A33W, Y103A
chain: B1 chain
light: B1 light
notes: one-arm antibody
B33: CE115HA000 Y55D (antibody, human IgG1, kappa, L234A L235A, N297A, name in Kabat numbering)
heavy: B1 heavy with A33W, Y58D
chain: B1 chain
light: B1 light
notes: one-arm antibody

molecular target: T1, CD3 epsilon homodimer protein (UniProt P07766 23-126); experiment: SPR, CD3 epsilon homodimer on chip, one-arm antibody as analyte;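 further: surface plasmon resonance at 25 °C with CD3 epsilon homodimer amine-coupled to a CM4 sensor chip, antibody injected as analyte, HBS-EP+ as running buffer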
T1 construct: also called CD3 (CD3 epsilon)
T1 sequence (P07766 23-126): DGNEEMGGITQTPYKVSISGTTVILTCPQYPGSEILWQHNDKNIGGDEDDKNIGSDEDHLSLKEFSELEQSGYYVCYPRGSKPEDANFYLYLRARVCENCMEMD
Description: An appropriate amount of CD3 epsilon homodimer protein was immobilized onto Sensor chip CM4 (GE Healthcare Japan Corp.) by the amine coupling method. Then, the antibody having an appropriate concentration was injected thereto as an analyte and allowed to interact with the CD3 epsilon homodimer protein on the sensor chip. Then, the sensor chip was regenerated by the injection of 10 mmol/L glycine-HCl (pH 1.5). The assay was conducted at 25 degrees C., and HBS-EP+(GE Healthcare Japan Corp.) was used as a running buffer. […] Each parameter was calculated using Biacore T200 Evaluation Software (GE Healthcare Japan Corp.).

KD ratio (KD of CE115HA000/KD of altered form) | Binder
30 | B1
1.24 | B2
1.06 | B3
1.21 | B4
0.66 | B5
0.74 | B6
0.66 | B7
4.81 | B8
1180 | B9
65.7 | B10
0.77 | B11
5.65 | B12
1.86 | B13
0.97 | B14
1.3 | B15
47200 | B16
0.67 | B17

KD ratio (KD of CE115HA000/KD of altered form) | Binder
0.79 | B18
0.63 | B19
0.99 | B20
0.93 | B21
0.66 | B22
12400 | B23
0.69 | B24
4.96 | B25
1.22 | B26
0.61 | B27
0.92 | B28
1690 | B29
23200 | B30
0.7 | B31
41300 | B32
0.89 | B33
